Series [1] deals with Aβ added to the cultures at 10 µM in a non-fibrillar state. Briefly: cell-based or functional assay.
The target in series [2] is human β-endorphin1-31 (human) (UniProt P01189). Description: cell-based or functional assay.
In series [3] the target is amyloid beta peptide Aβ1-40. Description: cell-based or functional assay.
Another series concerns the target dynorphin B-9 (UniProt P01213).

Chain of human β-endorphin1-31 (human) (P01189 237-267 limits assumed): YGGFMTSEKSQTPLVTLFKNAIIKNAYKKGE

With “human neprilysin expressed from a lentiviral construct in primary neuronal cultures of neprilysin deficient mice (from UniProt P08473 2-750) (enzyme)”, the survival of neuronal cells subjected to Aβ induced neurotoxicity (% increase in cell survival) in series [1] was found to be 75. Turning to “insulysin purified from a thymoma cell line, EL-4 (from UniProt Q9JHR7 42-1019) (enzyme)”, in series [2], the specific activity of enzyme purified from a thymoma cell line, EL-4 turned out to be 3.3 µmols/min/mg. For the substance “recombinant rat insulysin with an N-terminal His6 affinity tag, expressed in baculovirus-infected Sf9 cells (from UniProt P35559 42-1019) (enzyme)”, the inhibition of deposition of 125I-Aβ1-40 onto pre-deposited Aβ1-40 (% inhibition with 50 ng of insulysin) in series [3] came to 50.

On to trypsin, for which the “trypsin hydrolysis of the fluorogenic peptide Abz-GGFLRKHGQ-EDDnp (SEQ ID NO: 14)” value in the series with dynorphin B-9 is “trypsin hydrolysis of the same peptide showed inhibition, not activation, by dynorphin B-9”.

The record behind these values is US7807396.
